# Ends that are not written are not given here.
# What was measured:
# [1] = Short-term stability with insulin analogues, ThT binding assay; assay type: physicochemical; settings: 10 μM of each compound, 10 mM NaH2PO4 pH 7.4, 24h at 25° C.; FIG. 13A-D
# Experimental: The aggregation ratio of human amylin or its PEGylated derivative upon combination with insulin R, insulin detemir, or insulin glargine was tested by ThT binding assay. Combinations (10 μM of each compound) were incubated with 10 mM NaH2PO4 pH 7.4 and in presence of 10 μM ThT, for 24h at 25° C. Fluorescence variations indicating amyloid fibers formation were monitored by exciting at 450 nm and measuring emission at 482 nm.
# [2] = Amyloid aggregation of human amylin by thioflavin T (ThT) binding; assay type: physicochemical; settings: pH 7.4, FIG. 7
# Experimental: Purified monoPEGylated human amylin of example 1 was re-suspended in DMSO and diluted to PBS pH 7.4 and allowed to incubate at 37° C. Samples were evaluated for amyloid aggregates by using the amyloid chromogenic probe thioflavin T (ThT). The employment of ThT binding protocols to measure amyloid fibril formation has already been determined in the art (see, e.g., Levine, 1999). The kinetics of amylin (50 μM of free or hAmy-PEG5k) aggregation was performed by incubating the protein in 10 mM NaH2PO4 pH 7.4 at 25° C. Aggregation was followed by the binding of Thioflavin T (ThT) to amyloid fibrils, by adding 160 μL sample with 40 μL ThT 100 μM and monitoring fluorescence by exciting at 450 nm and measuring emission at 482 nm for 24 h
# RAMP2 = RAMP2 (Homo sapiens, UniProt O60895); assay: RAMP2 coreceptor binding, fluorescence anisotropy of RAMP-FITC; settings: duplicate assays, FIG. 5
# Experimental: (§1) Purified monoPEGylated human amylin was assayed for RAMP2 and RAMPS coreceptor binding interaction.
# (§2) RAMP (receptor activity modifying protein) was labeled with fluorescein isothiocianate for 1 h at 4° C. in PBS ([…]) pH 7.4, and purified by size exclusion chromatography (SEC) in Sepharose G25 (agarose-based chromatography media, provided by the US company GE Healthcare) using the same buffer. Labelling was confirmed by UV absorbance measurements at A280 and A490, allowing estimation of coupling efficiency, relying on about 0.5 fluorescein/RAMP molecule.
# RAMP3 = biological target: T1, RAMP3 (Homo sapiens, UniProt O60896); assay: RAMP3 coreceptor binding, fluorescence anisotropy of RAMP-FITC; settings: duplicate assays, FIG. 6
# T1 sequence (O60896 24-148): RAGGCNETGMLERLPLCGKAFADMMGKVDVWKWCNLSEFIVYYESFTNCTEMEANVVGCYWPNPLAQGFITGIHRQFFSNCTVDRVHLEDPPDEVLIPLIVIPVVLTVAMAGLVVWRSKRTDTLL
# Experimental: as §1, §2
# [3] = Pharmacokinetics in rats, plasma ELISA for human amylin; assay type: in vivo, Harlan Sprague Dawley male rats; settings: 100 μg peptide in 500 uL saline, FIG. 8A-C
# Experimental: The pharmacokinetics of the hAmy-PEG5k and hAmy-PEG20k were characterized in vivo in Harlan Sprague Dawley male rats. The animals were housed in a temperature-controlled room with a light-dark cycle of 12 h. Water and food were available ad libitum. Three groups were formed, control (free human amylin, not PEGylated), hAmy-PEG5k and hAmy-PEG20k. Animals received 500 uL of saline containing 100 μg of human amylin peptides, either free human amylin or purified monoPEGylated human amylin derivatives. Blood was collected retro-orbitally from rats (n=3 rats for each time interval), and the plasma was subjected to ELISA assay for human amylin as provided by the manufacturer (Millipore, Cat Number EZHA-52K.
# [4] = Isoelectric focusing (pI determination); assay type: physicochemical; settings: IEF, pH 3-10 linear immobilized pH gradient strips; FIG. 9
# Experimental: Sixty micrograms of acetylated human amylin (AcO-hAmy) or hAmyPEG5k were dissolved into 8 M urea, 2% CHAPS and 0.002% bromophenol blue buffer to a final volume of 125 μL. The samples were incubated into a 7 cm pH 3-10 linear immobilized pH gradient strips overnight prior to isoelectric focalization (IEF). The IEF was carried out in MultiPhor II (Pharmacia Biotech) device at 20° C. according to the following conditions, 200 V (1 min), ramping to 3500 V (90 min) and 3500 V (60 min). At the end, the strips were fixed with 0.20% glutaraldehyde (in 30% ethanol, 0.2 M sodium acetate) for 60 min at room temperature, and then stained for peptide identification by Coomassie brilliant blue R-250 (at 0.025% in 40% methanol, 7% acetic acid) for 30 min. The excess of Coomassie was removed by incubation with 0.1% acetic acid until no background visualization. The IEF can be easily calculated from the relationship between displacements in the strips and pH. As depicted in FIG. 9, the acetylation of Lys1 present in AcO-hAmy (FIG. 9A) and the PEGylation in the same site, present in hAmy-PEG5k (FIG. 9B), results in similar effects on the pI of human amylin, […] it to approximately 9.2.
# [5] = Short-term pH-dependent aggregation, ThT fluorescence; assay type: physicochemical; settings: pH 3.0 to 10.0, 24h at 25° C.; FIGS. 10, 11
# Experimental: In a first setting, free human amylin, […] incubated in aqueous buffered solutions with different pH (from 3.0 to 10.0) in the presence of ThT. Fluorescence emissions derived from ThT binding to amyloid fibers were monitored for 24h at 25° C. […] These findings support the hypothesis that acylated derivatives of human amylin have increased stability in aqueous solutions, especially, in physiologic pH ranges.
# [6] = Long-term effect of pH on aggregation of hAmyPEG5k; assay type: physicochemical; settings: 7 days at 25° C. then 9 days at 37° C. (16 days total); FIG. 12
# Experimental: In another experimental setting, the influence of pH over the stability of the hAmyPEG5k was also tested for a longer period of time (up to 16 days) and at higher energy environments (37° C.). […] (i.e., 16 days total).
# Sequence of RAMP2 (O60895 43-175, species assumed): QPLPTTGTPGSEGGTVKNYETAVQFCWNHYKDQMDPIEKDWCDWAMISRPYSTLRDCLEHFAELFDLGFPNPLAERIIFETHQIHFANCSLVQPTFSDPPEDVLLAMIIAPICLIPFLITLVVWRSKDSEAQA
substance,measurement,setting,value
detemir,aggregation (ThT binding),[1],negligible aggregation
KCNTATCATQRLANFLVHSSNNFGAILSSTNVGSNTY [human amylin],aggregation (ThT binding to amyloid fibrils),[2]; 50 μM,aggregates very fast
same,aggregation (ThT binding to amyloid fibrils),[2]; in 3 days,almost all free human amylin was aggregated in amyloid form
same,aggregation (ThT binding),[1],aggregates
"HEWL: unrelated protein hen egg white lisozyme, control for non-specific binding",apparent binding affinity for the coreceptor RAMP2,RAMP2,nonspecific binding
same,apparent binding affinity for the coreceptor RAMP3,RAMP3,nonspecific binding
"hAmy-PEG5k: monopegylated amylin obtained by the reaction of human amylin and mPEG 5000 Da (KCNTATCATQRLANFLVHSSNNFGAILSSTNVGSNTY; not fully specified (C-terminus, bridges); cysteine pairing not given here; also: mono-PEGylated with mPEG 5000 Da, site not given here)",aggregation (ThT binding to amyloid fibrils),[2]; at day 7,no signs of aggregation
same,plasma decay / duration of stability in plasma,[3],longer duration of stability in plasma
same,pI,[4],approximately 9.2
same,aggregation kinetics / aqueous stability (ThT),[5],improved aqueous stability and lower or absent formation of amyloid fibers
same,"aggregation at different pH, long term",[6],remains non-aggregated
same,aggregation (ThT binding),[1],does not
glargine,aggregation (ThT binding),[1],negligible aggregation
insulin R: recombinant insulin,aggregation (ThT binding),[1],negligible aggregation
